# In the supplement of paper PMC10724198:
# ± gives the standard deviation of the averaged measurements.
# System: Saccharomyces cerevisiae
# Experiment: protein stability index of tFT-peptide fusion (C-terminal peptide) (PSI (0-1 scale)); higher = more stable (slower turnover)
# Conditions: genetic background: wild type; temperature: 30 C
# Protocol: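 Multiplexed protein stability (MPS) profiling in S. cerevisiae. Random 12-aa peptides (tFT-X12 library) are fused to the C-terminus of a sfGFP-mCherry tandem fluorescent timer, after mCherry and a GGGS linker. Cells are FACS-sorted into 8 mCherry/sfGFP bins and deep-sequenced. The protein stability index (PSI) is the read-weighted bin average, scaled from 0 (unstable) to 1 (stable). Only peptides with >10 reads are reported; cells were grown at 30 °C in SC-His with glucose.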
# 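Further: PSI is a weighted mean of sequencing reads over stability bins, variants kept only with over 10 reads, mCherry proximal and sfGFP distal, peptide attached via GGGS linker.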
row,Sequence,protein stability index
1,GGGVGWWVSYVG,0.673 ± 0.012
2,GGGVRLMSIHRG,0.662 ± 0.012
3,GGGVSFWLGVVA,0.6211 ± 0.0026
4,GGGWCESRGDGA,0.655 ± 0.085
5,GGGWGSRGVCLG,0.65 ± 0.11
6,GGGWRGRRVADF,0.701 ± 0.043
7,GGHGRREEKGQR,0.6845 ± 0.0058
8,GGHLTMMFGRLF,0.713 ± 0.019
9,GGKWGVAGGGPW,0.738 ± 0.074
10,GGLGLVESVFVI,0.67 ± 0.052
11,GGLGVAGAGVVC,0.655 ± 0.042
12,GGPASSGLMDGY,0.698 ± 0.0062
13,GGPGGGGVSDGM,0.804 ± 0.14
14,GGPIQAGLSFPG,0.685 ± 0.025
15,GGPRGPPMLIWE,0.738 ± 0.037
16,GGRFGMWRGGQA,0.7245 ± 0.0064
17,GGRGAVSGIVRK,0.613 ± 0.014
18,GGRGRGARPGGR,0.647 ± 0.027
19,GGRGSRWAGPRC,0.669 ± 0.038
20,GGRPIRNTTREG,0.655 ± 0.022
21,GGRREGRGFNDG,0.676 ± 0.025
22,GGRRYSRPGQKH,0.661 ± 0.018
23,GGRSSGRLMGKE,0.712 ± 0.013
24,GGRTRPGGLSRP,0.678 ± 0.035
25,GGSFRLLAVVFP,0.635 ± 0.044
26,GGSRRANRQMRK,0.7148 ± 0.0045

row,Sequence,protein stability index
1,GGSRRRAVGAGV,0.709 ± 0.057
2,GGSSEKVLCIWR,0.7246 ± 0.0014
3,GGTCWEGEVVDV,0.641 ± 0.029
4,GGTKGKAGGEAA,0.672 ± 0.043
5,GGVFREEGAAER,0.693 ± 0.021
6,GGVGSMITWRVG,0.689 ± 0.082
7,GGVGWWVGVVWG,0.624 ± 0.071
8,GGVLDGVGVRMG,0.69 ± 0.054
9,GGVVVGRGVCVF,0.626 ± 0.032
10,GGVVVRGRASAR,0.717 ± 0.02
11,GGWCWGWGPGSG,0.687 ± 0.056
12,GGWGGVCGACVV,0.702 ± 0.035
13,GGWGRKCGGSGG,0.711 ± 0.018
14,GGWGWEGRGGSG,0.677 ± 0.014
15,GGWPLSPSFGWG,0.571
16,GGWWSCAWGVRG,0.627 ± 0.065
17,GHEKAGPSIGFL,0.644 ± 0.027
18,GHFWVFGIPFFR,0.6547 ± 0.0017
19,GHVCNSIVPFRV,0.624 ± 0.022
20,GHVPIWPFLSLS,0.6664 ± 0.0042
21,GIASKCFWFVCG,0.645 ± 0.018
22,GICDAVLFTMLV,0.682 ± 0.068
23,GIKQEMKYQVGK,0.665 ± 0.07
24,GILRGSKKVDPP,0.622 ± 0.029
25,GILYFPAGHHAG,0.627 ± 0.035
26,GIPWSVLLSSYW,0.713 ± 0.033

row,Sequence,protein stability index
1,GIQAGGGGGKGG,0.676 ± 0.022
2,GIQIRIDNQKKN,0.67 ± 0.025
3,GIVFVFGGGLAL,0.702 ± 0.078
4,GIVVTCLRSRWD,0.647 ± 0.013
5,GKADRRKSEHVR,0.733 ± 0.047
6,GKCFSFSFNCLH,0.521 ± 0.023
7,GKFVEVVRFWSV,0.721 ± 0.074
8,GKGREGVGEVGK,0.6753 ± 0.0043
9,GKGRIWTGRKGC,0.68 ± 0.098
10,GKGYVFRTLSHL,0.732 ± 0.082
11,GKIGAIRVVGWA,0.662 ± 0.02
12,GKLLPCVRGRGL,0.665 ± 0.024
13,GKNGKNMDKDNK,0.676 ± 0.019
14,GKNRKKEEHAKR,0.702 ± 0.12
15,GKRGKKVKKKSK,0.621 ± 0.016
16,GKRKEAVLRMMI,0.6213 ± 0.0017
17,GKSLIKRYANKI,0.7436 ± 0.0019
18,GKSREKEKESRE,0.658 ± 0.032
19,GKTNKALDRISI,0.679 ± 0.038
20,GKYKKGNSIAIE,0.598 ± 0.012
21,GLAPYRPVITFS,0.675 ± 0.002
22,GLCGVVFGGRGE,0.657 ± 0.064
23,GLCPCGDAISTR,0.682 ± 0.053
24,GLEGSVRRVRGS,0.701 ± 0.011
25,GLESVGRVSLRG,0.657 ± 0.0094
26,GLFFISLFFPFL,0.575 ± 0.0096

row,Sequence,protein stability index
1,GLFVSLRGLSLS,0.71 ± 0.044
2,GLGRRRGVGGVR,0.709 ± 0.0027
3,GLGVCGTGIGGV,0.656 ± 0.014
4,GLIVGLLGVSGF,0.591 ± 0.0062
5,GLKTLQTCRIIR,0.691 ± 0.054
6,GLLENLKKRSRG,0.691 ± 0.07
7,GLLRGHVFVGRG,0.692 ± 0.029
8,GLLSLPPRLPFL,0.672 ± 0.073
9,GLLTFPPNRSGG,0.67 ± 0.05
10,GLMRDKEMRMPK,0.68 ± 0.036
11,GLNVLVWALLSQ,0.548 ± 0.032
12,GLPCLSPPLAPS,0.683 ± 0.034
13,GLPRCMDWSIRR,0.6764 ± 0.00099
14,GLPTPSNVPPFG,0.703 ± 0.01
15,GLRQVPGDLAEG,0.699 ± 0.039
16,GLSGVVGSRCHC,0.713 ± 0.02
17,GLSLFPVTFFLR,0.585 ± 0.02
18,GLSPDFRFMGVR,0.667 ± 0.029
19,GLSSLVLRFFLP,0.663 ± 0.025
20,GLSTPPSPALLR,0.748 ± 0.013
21,GLTWFRQARAAL,0.718 ± 0.039
22,GLVDARRRWCFS,0.62 ± 0.0073
23,GLVHGSWGCQCD,0.714 ± 0.015
24,GLVRGGGGTVGG,0.81 ± 0.22
25,GLVSSDVGFRGY,0.73 ± 0.019
26,GLYHGFCLSGCL,0.678 ± 0.04

row,Sequence,protein stability index
1,GMGLWCLSGLFP,0.7131 ± 0.0067
2,GMKDKSVRTIKK,0.721 ± 0.0035
3,GMLGVGGYGGLW,0.717 ± 0.078
4,GNAKKRKNKEKK,0.651 ± 0.09
5,GNCVESCMWQRE,0.704 ± 0.05
6,GNKAPHTRTIGG,0.706 ± 0.028
7,GPALCPVWATYG,0.591 ± 0.0086
8,GPGGGGGLWVRV,0.617 ± 0.016
9,GPGTSSSGLVFT,0.692 ± 0.029
10,GPKTFIRSTKEI,0.697 ± 0.03
11,GPPLSPPLLLLL,0.681 ± 0.046
12,GPPPLPSPPSHP,0.753 ± 0.1
13,GPPPPPRPPLPP,0.665 ± 0.049
14,GPPTASPLVAPA,0.621 ± 0.02
15,GPRGWRASVWAG,0.687 ± 0.07
16,GPRVFKPRTTHG,0.663 ± 0.025
17,GPSFVVTVGNGG,0.686 ± 0.02
18,GPSVPPLPRHEL,0.728 ± 0.051
19,GPSVRSTARGPG,0.724 ± 0.12
20,GPVCVVSGVFTV,0.665 ± 0.072
21,GPYDLPCLPLSA,0.633 ± 0.014
22,GQAGGRVEVREP,0.6887 ± 0.005
23,GQCQERRKGGCA,0.577 ± 0.0063
24,GQCRFVEDVYVT,0.685 ± 0.009
25,GQMYTLATSAVV,0.602 ± 0.076
26,GQRRDSSSEVWG,0.67 ± 0.017

row,Sequence,protein stability index
1,GQRWADGGFVEV,0.783 ± 0.1
2,GQVTAHFRLARV,0.697 ± 0.049
3,GRAGGDGVGGGV,0.6382 ± 0.0024
4,GRCHRFQWSVRR,0.681 ± 0.015
5,GRDKGNLQSLRR,0.732 ± 0.014
6,GRGGLGGWEWDR,0.712 ± 0.034
7,GRGGLGWWEWDR,0.7462 ± 0.0067
8,GRGGVGWGEWDR,0.729 ± 0.056
9,GRGGWVHRRIGA,0.676 ± 0.035
10,GRGKKRKERAER,0.649 ± 0.045
11,GRGRWRGGVAVE,0.802 ± 0.13
12,GRGRWRSVYLRG,0.622 ± 0.0078
13,GRGVWEFGGGGG,0.666 ± 0.056
14,GRIPELVWWLDD,0.76 ± 0.037
15,GRIVPSFQGSPQ,0.723 ± 0.093
16,GRKGGEGERERT,0.6715 ± 0.0049
17,GRKRWVRLSLAC,0.563 ± 0.028
18,GRKVPQRRQSAR,0.749 ± 0.015
19,GRLGSTRRPPSG,0.701 ± 0.0095
20,GRLIERCSLRMT,0.68 ± 0.055
21,GRLKSTSTIRRF,0.722 ± 0.021
22,GRLLCFLFCCSS,0.603 ± 0.035
23,GRLRGGGPVAAR,0.692 ± 0.053
24,GRLRNVSLLSFC,0.662 ± 0.011
25,GRPHRYWRVVPY,0.68 ± 0.036
